Experimental data published in publication PMC6127144.

Target: human plasma membrane Ca2+-ATPase 1, full-length human PMCA1d (human) (UniProt P20020)
Sequence of UniProt P20020 (P20020 other isoform, or with tags, fused parts or gaps): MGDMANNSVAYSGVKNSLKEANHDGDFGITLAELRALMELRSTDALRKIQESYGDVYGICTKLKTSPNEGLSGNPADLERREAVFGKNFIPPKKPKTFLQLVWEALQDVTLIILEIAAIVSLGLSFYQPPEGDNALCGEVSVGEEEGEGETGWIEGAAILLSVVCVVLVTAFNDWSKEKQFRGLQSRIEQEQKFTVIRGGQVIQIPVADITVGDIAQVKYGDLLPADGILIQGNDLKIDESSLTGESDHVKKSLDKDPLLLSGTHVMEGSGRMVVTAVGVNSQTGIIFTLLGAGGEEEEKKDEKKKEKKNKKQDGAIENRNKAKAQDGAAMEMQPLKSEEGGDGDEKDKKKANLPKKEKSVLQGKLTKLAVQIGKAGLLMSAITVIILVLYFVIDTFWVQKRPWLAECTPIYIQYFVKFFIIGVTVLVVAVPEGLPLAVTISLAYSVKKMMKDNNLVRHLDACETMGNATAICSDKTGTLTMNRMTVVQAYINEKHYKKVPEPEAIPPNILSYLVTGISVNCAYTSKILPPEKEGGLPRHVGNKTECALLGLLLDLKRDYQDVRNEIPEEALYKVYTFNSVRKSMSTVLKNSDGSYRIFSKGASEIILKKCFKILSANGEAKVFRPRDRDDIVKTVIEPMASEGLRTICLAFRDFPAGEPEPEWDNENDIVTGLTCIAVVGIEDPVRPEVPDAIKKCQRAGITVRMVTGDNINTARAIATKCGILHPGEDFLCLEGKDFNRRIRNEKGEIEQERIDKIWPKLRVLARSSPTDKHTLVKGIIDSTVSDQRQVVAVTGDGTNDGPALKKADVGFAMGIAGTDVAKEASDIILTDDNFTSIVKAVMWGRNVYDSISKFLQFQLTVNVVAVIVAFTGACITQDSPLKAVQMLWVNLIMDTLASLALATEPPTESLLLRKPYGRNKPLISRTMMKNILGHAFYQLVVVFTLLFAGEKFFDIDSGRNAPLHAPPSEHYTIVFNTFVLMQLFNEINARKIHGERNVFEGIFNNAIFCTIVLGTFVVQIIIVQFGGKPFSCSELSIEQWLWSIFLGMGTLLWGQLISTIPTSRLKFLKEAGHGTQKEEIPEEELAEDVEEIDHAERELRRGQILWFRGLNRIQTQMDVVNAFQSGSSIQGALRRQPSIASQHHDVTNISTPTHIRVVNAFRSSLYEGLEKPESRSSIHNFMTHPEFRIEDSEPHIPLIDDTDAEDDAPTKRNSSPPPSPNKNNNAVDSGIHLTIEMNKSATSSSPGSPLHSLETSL

Q: Which Vmax of the ATPase activity of purified hPMCA1-NPTN proteins (nmol mg^-1 min^-1) does the source give for neuroplastin (natural protein) here?
A: 326
